Experimental data from US8138323.
One block for each substance: values may come before it.

How the values were obtained:
[1] = biological target: TNF Binding Protein I (human) (UniProt P19438); assay: solid phase assay, 125I-TBP-I bound to TNF-α with 10 µg/ml IFN-gamma as competitor
[2] = biological target: Tumor Necrosis Factor (TNF) Binding Protein II (human) (UniProt P20333); assay: solid phase assay, 125I-TBP-II bound to TNF-α with 10 µg/ml IFN-gamma as competitor
[3] = biological target: TNF Binding Protein I (human) (UniProt P19438); assay: solid phase assay, 125I-TBP-I bound to TNF-α with 10 µg/ml IL-1α as competitor
[4] = biological target: Tumor Necrosis Factor (TNF) Binding Protein II (human) (UniProt P20333); assay: solid phase assay, 125I-TBP-II bound to TNF-α with 10 µg/ml IL-1α as competitor
[5] = biological target: TNF Binding Protein I (human) (UniProt P19438); assay: solid phase assay, 125I-TBP-I bound to TNF-α with 10 µg/ml IL-6 as competitor
[6] = biological target: Tumor Necrosis Factor (TNF) Binding Protein II (human) (UniProt P20333); assay: solid phase assay, 125I-TBP-II bound to TNF-α with 10 µg/ml IL-6 as competitor

bound CPM [1]: 28000 CPM
Substance: IFN-gamma (from UniProt P01579 24-166) (ligand)
bound CPM [2]: 18500 CPM

bound CPM [3]: 28100 CPM
Substance: IL-1α (from UniProt P01583 113-271) (ligand)
bound CPM [4]: 17800 CPM

bound CPM [5]: 27000 CPM
Substance: IL-6 (from UniProt P05231 30-212) (ligand)
bound CPM [6]: 18600 CPM
